From patent US5604203A, “Analogs of peptide YY and uses thereof” (University of Cincinnati, priority 1994, dated 1997)
Where two headings read alike, the source gives them in different places. Square brackets hold non-standard residues; d marks the D form. Peptide text beside a SMILES is read from it. Phe(4-Cl) = N[C@@H](Cc1ccc(Cl)cc1)C(=O)O

Tests used:
[1] = test system: rat jejunal mucosa; settings: Cox et al. Peptides, supra; cited from earlier work
[2] = test system: rat jejunal mucosa; test: Short circuit current (SCC) in voltage clamped rat jejunal mucosa (antisecretory effect); assay type: cell-based; settings: for EC50: Table 1, reduction of baseline SCC, rat jejunum, mean of three separate experiments
Description: The antisecretory effects of the peptides were investigated by measuring the short-circuit current (SCC) in rat jejunal mucosa mounted in a Ussing chamber and automatically voltage clamped as described by Cox et al. (J. Physiol. supra). Briefly, strips of mucosa were placed between two halves of perspex Ussing chambers (window size, 0.6 cm^2) containing oxygenated (95% O2 /5% CO2) Krebs-Henseleit solution (NaCl, 117 mM, KCl 4.7 mM, CaCl2, 2.5 mM; MgSO4 1.2 mM, NaHCO3 24.8 mM and glucose 11.1 mM), pH 7.4, 37° C. […] Once a stable baseline SCC was reached, peptides were added to the basolateral reservoir only, and cumulative concentration-response profiles constructed.

[3] = molecular target: T1, intestinal PYY-preferring receptors (Rattus norvegicus, UniProt Q9ERC0); settings: BINDING IC50 (nM), Table 1; 125I-PYY, rat jejunal membranes; mean of three separate experiments
T1 sequence (Q9ERC0 1-381): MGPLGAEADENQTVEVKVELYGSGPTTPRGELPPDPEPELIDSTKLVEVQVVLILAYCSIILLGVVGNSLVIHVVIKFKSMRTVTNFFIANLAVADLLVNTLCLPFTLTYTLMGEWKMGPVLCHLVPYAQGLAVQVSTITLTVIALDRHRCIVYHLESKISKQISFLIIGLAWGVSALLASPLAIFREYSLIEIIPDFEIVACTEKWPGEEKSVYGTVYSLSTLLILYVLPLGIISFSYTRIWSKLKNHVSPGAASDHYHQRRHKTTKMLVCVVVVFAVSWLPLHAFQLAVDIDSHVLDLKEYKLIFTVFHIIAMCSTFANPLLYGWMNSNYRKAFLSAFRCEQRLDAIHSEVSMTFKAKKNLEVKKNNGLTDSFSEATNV
Description: Bound and free peptides were separated by centrifugation at 20,000×g for 10 min.
All points in the binding experiments are the mean of at least three experiments performed in duplicate.

[4] = molecular target: PYY receptor of rat jejunal epithelial plasma membranes (rat)
[5] = molecular target: PYY receptor of rat jejunal epithelial plasma membranes (rat); remark: listed apart in the source
[6] = molecular target: PYY receptor of rat jejunal epithelial plasma membranes (rat); test: competition with 125I-PYY on rat jejunal epithelial plasma membranes
[7] = molecular target: PYY receptor of rat jejunal epithelial plasma membranes (rat); test: competition with 125I-PYY on rat jejunal membranes
[8] = molecular target: PYY receptor of rat jejunal epithelial plasma membranes (rat); test: competition with 0.05 nM 125I-PYY on rat jejunal epithelial plasma membranes
[9] = molecular target: PYY receptor of rat jejunal epithelial plasma membranes (rat); test: competitive binding, done as described above (125I-PYY, rat jejunal membranes)
[10] = molecular target: PYY receptor of rat jejunal epithelial plasma membranes (rat); remark: listed apart in the source

For [Pro^34 ]NPY: Y-1 selective agonist, the “sensitivity of rat jejunal epithelial receptors to agonist” value [1] is given as “completely insensitive”.

In the case of `CC(=O)N[C@@H](C)C(=O)N[C@@H](CO)C(=O)N[C@@H](CC(C)C)C(=O)N[C@@H](CCCNC(=N)N)C(=O)N[C@@H](Cc1ccc(Cl)cc1)C(=O)N[C@@H](Cc1ccc(O)cc1)C(=O)N[C@@H](CC(C)C)C(=O)N[C@@H](CC(N)=O)C(=O)N[C@@H](CC(C)C)C(=O)N[C@H](C(=O)N[C@H](C(=O)N[C@@H](CCCNC(=N)N)C(=O)N[C@@H](CCC(N)=O)C(=O)N[C@@H](CCCNC(=N)N)C(=O)N[C@@H](Cc1ccc(O)cc1)C(N)=O)[C@@H](C)O)C(C)C` [N-α-Ac-[p.ClPhe^26]PYY(22-36), N-α-Ac-A S L R [p.Cl.Phe^26] Y L N L V T R Q R] (HELM PEPTIDE1{[ac].A.S.L.R.[O=C([C@H](Cc1ccc(Cl)cc1)N[*:1])[*:2]].Y.L.N.L.V.T.R.Q.R.Y.[am]}$$$$V2.0), the EC50 [2] is reported as 124 nM and the IC50 [3] is reported as 50 nM.

With “N-α-naphthaleneacetyl-PYY(22-36) (peptide)” the SCC EC50 [4] was over 30000 nM and the SCC EC50 [5] was 19500 nM.

For “Ac-ASLRHFLNLVTRQRY-NH2 [N-α-Ac-[Phe^27]PYY(22-36)]”, the “maximal inhibitory response (change in SCC)” value ([2]; 1.4 μM, n=7) was -12.0±1.3 μA/0.6 cm^2, the EC50 [2] was 15.1 nM and the “times less potent than the intact hormone (antisecretory potency)” value ([2]; relative to PYY) was 9 times.

In the case of “Ac-ASLRHYENLVTRQRY-NH2 [N-α-Ac-[Glu^28]PYY(22-36), N-α-Ac-A S L R H Y [Glu] N L V T R Q R Y--NH2]”, the EC50 [2] is reported as 3000 nM and the IC50 [3] is reported as 44.7 nM.

N-α-Ac-PYY(22-36) (peptide) showed a fold increase of receptor affinity against PYY(22-36) [6] of 4 times, an SCC EC50 [5] of 40 nM and an IC50 [7] of 0.08 nM. The IC50 [8] was 1.12 nM.

In the case of PYY (peptide YY) (ligand), the IC50 [9] is reported as 0.1 nM, the SCC EC50 of PYY after treatment of the tissue with the analog (1 µM) [4] is reported as 4.4 nM and the SCC EC50 of PYY, nontreated controls [4] is reported as 2.6 nM. For the same molecule, the SCC EC50 [5] was 1.7 nM, the IC50 [7] was 0.04 nM and the maximal inhibitory response of SCC [10] was -12.6 µA/0.6 cm^2. For the same molecule, the IC50 [8] was 0.2 nM.

B1: N-α-Ac-[p.ClPhe^26 ]PYY(22-36) (peptide)
peptide: ASLRXYLNLVTRQRY
HELM: PEPTIDE1{[ac].A.S.L.R.[O=C([C@H](Cc1ccc(Cl)cc1)N[*:1])[*:2]].Y.L.N.L.V.T.R.Q.R.Y.[am]}$$$$V2.0
SMILES: CC(=O)N[C@@H](C)C(=O)N[C@@H](CO)C(=O)N[C@@H](CC(C)C)C(=O)N[C@@H](CCCNC(=N)N)C(=O)N[C@@H](Cc1ccc(Cl)cc1)C(=O)N[C@@H](Cc1ccc(O)cc1)C(=O)N[C@@H](CC(C)C)C(=O)N[C@@H](CC(N)=O)C(=O)N[C@@H](CC(C)C)C(=O)N[C@H](C(=O)N[C@H](C(=O)N[C@@H](CCCNC(=N)N)C(=O)N[C@@H](CCC(N)=O)C(=O)N[C@@H](CCCNC(=N)N)C(=O)N[C@@H](Cc1ccc(O)cc1)C(N)=O)[C@@H](C)O)C(C)C
B1 showed an SCC EC50 [5] of 124 nM and an IC50 [8] of 50 nM.

Ac-ASLRHYENLVTRQRY-NH2 [N-α-Ac-[Glu^28 ]PYY(22-36)] showed an SCC EC50 [5] of 3000 nM and an IC50 [8] of 44.7 nM.

Ac-ASLRHFLNLVTRQRY-NH2 [N-α-Ac-[Phe^27 ]PYY(22-36)] gave a percent increase of receptor affinity against N-α-Ac-PYY(22-36) [6] of 28%, an SCC EC50 [5] of 15.1 nM and an antisecretory potency against PYY (times less potent than PYY) [10] of 9. For the same molecule, the maximal inhibitory response of SCC [10] was -12 µA/0.6 cm^2 and the IC50 [8] was 0.8 nM.

B2: N-α-Ac-[Thz^26, Phe^27 ]PYY(22-36) (peptide)
peptide: ASLRXFLNLVTRQRY
HELM: PEPTIDE1{[ac].A.S.L.R.[O=C([C@H](Cc1cscn1)N[*:1])[*:2]].F.L.N.L.V.T.R.Q.R.Y.[am]}$$$$V2.0
SMILES: CC(=O)N[C@@H](C)C(=O)N[C@@H](CO)C(=O)N[C@@H](CC(C)C)C(=O)N[C@@H](CCCNC(=N)N)C(=O)N[C@@H](Cc1cscn1)C(=O)N[C@@H](Cc1ccccc1)C(=O)N[C@@H](CC(C)C)C(=O)N[C@@H](CC(N)=O)C(=O)N[C@@H](CC(C)C)C(=O)N[C@H](C(=O)N[C@H](C(=O)N[C@@H](CCCNC(=N)N)C(=O)N[C@@H](CCC(N)=O)C(=O)N[C@@H](CCCNC(=N)N)C(=O)N[C@@H](Cc1ccc(O)cc1)C(N)=O)[C@@H](C)O)C(C)C
In the case of B2, the IC50 [9] is reported as 4.5 nM.

Ac-ASLRH[Phe(4-Cl)]LNLVTRQRY-NH2 [N-α-Ac-[Pcp^27 ]PYY(22-36)] showed an IC50 [9] of 1.58 nM.

Molecule FSLRHFLNLVTRQRY (not fully specified; N-terminal acetyl; C-terminal amide) [N-α-Ac-[Phe^22,27 ]PYY(22-36)] has an IC50 [9] of 11.2 nM.

Ac-YSLRHFLNLVTRQRY-NH2 [N-α-Ac-[Tyr^22, Phe^27 ]PYY(22-36)] gave an IC50 [9] of 0.1 nM.
